Results reported in US20110300100A1 (CSL, published 2011).
Positions count from the first letter of the chain named. Names may count otherwise. Values belong to the binder of their own block, whether it stands above or below them.

How the values were obtained:
[1] = target: T1, wild-type murine IL-11Rα on stably transfected Ba/F3 cells (with co-receptor murine gp130) (murine, UniProt Q64385 24-432); assay: cell-based or functional assay
T1 sequence (looked up): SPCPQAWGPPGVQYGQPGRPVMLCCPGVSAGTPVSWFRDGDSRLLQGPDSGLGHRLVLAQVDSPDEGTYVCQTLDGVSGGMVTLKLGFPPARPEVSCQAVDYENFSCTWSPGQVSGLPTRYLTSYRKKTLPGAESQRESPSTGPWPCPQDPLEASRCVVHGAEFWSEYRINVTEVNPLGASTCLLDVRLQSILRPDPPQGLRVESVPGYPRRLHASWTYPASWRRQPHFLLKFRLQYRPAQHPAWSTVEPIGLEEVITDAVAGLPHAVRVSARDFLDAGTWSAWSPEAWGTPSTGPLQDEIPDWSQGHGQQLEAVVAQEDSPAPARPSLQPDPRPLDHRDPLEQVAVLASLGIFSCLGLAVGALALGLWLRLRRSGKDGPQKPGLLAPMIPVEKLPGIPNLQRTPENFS

[2] = target: T2, mIL-11Rα-Fc (murine, UniProt Q64385 24-372); assay: competition ELISA, soluble protein against phage displayed IL-11 variants on coated mIL-11Rα-Fc
T2 construct: Coated on the ELISA plates; not shown: Fc part of the bought fusion protein
T2 sequence (looked up): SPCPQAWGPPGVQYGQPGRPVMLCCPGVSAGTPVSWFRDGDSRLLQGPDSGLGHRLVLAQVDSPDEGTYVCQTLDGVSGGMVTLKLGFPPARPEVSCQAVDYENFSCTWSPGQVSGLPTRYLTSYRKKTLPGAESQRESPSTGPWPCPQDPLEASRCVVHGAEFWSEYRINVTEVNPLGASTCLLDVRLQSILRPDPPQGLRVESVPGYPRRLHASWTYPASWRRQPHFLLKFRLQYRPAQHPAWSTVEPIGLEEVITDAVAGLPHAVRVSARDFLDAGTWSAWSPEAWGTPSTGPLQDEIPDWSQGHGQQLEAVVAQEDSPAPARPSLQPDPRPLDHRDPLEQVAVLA
Procedure: The affinity of the selected IL-11 mutants for IL-11Rα was determined in a competition ELISA experiment. […] After incubation for 2 hours at room temperature, the plates were washed and bound phage were then labeled with an anti-M13 polyclonal antibody conjugated to horseradish peroxidase. After the removal of excess antibody by washing with PBS containing 0.05% Tween 20, TMB substrate was added to each well and incubated for 10 minutes before the reaction was quenched by the addition of 2M phosphoric acid. Absorbance at 450 nm was then determined for each well by analysis on a microtitre plate reader.
Clear differences were observed between the affinities of the mIL-11-W147A and mutant proteins for binding to IL-11Rα-Fc.

[3] = target: T2, mIL-11Rα-Fc; assay: IL-11Rα binding ELISA
[4] = target: T1, wild-type murine IL-11Rα on stably …; assay: cell-based or functional assay; remark: listed apart in the source

B1: IL-11 mutant 1B.382 (murine FMQIQ and W147A IL-11 mutein), N-terminal hexahistidine-tagged (ligand)
chain: PGPPAGSPRVSSDPRADLDSAVLLTRSLLADTRQLAAQMRDKFPADGDHSLDSLPTLFMQIQTLGSLQLPGVLTRLRVDLMSYLRHVQWLRRAGGPSLKTLEPELGALQARLERLLRRLQLLMSRLALPQAAPDQPVIPLGPPASAAGSIRAAHAILGGLHLTLDWAVRGLLLLKTRL
notes: Mutein of mature murine IL-11 with FMQIQ at 58-62 and W147A; also called clone 1B.382; not shown: N-terminal hexahistidine tag from the modified pET15b vector
IC50 (nM), inhibition of IL-11-induced proliferation of IL-11Rα/gp130 Ba/F3 cells (MTT) [1]: 0.49 nM
fold higher affinity relative to W147A IL-11 [2]: 20 fold

B4: Δ1.21 (PEGylated and truncated modified form of clone 1.21, W147C, amino acids 10-178 of SEQ ID NO:12) (ligand)
chain: VSSDPRADLDSAVLLTRSLLADTRQLAAQMRDKFPADGDHSLDSLPTLPAIDYTLGSLQLPGVLTRLRVDLMSYLRHVQWLRRAGGPSLKTLEPELGALQARLERLLRRLQLLMSRLALPQAAPDQPVIPLGPPASACGSIRAAHAILGGLHLTLDWAVRGLLLLKTRL
modifications: 40 kDa mPEG2-maleimide on Cys147 (position corresponding to position 147 of SEQ ID NO:12)
notes: His-tag and first nine residues (which carried the optimized thrombin site, residues 6 and 7 to L and V) removed by thrombin; N-terminus Val10-Ser11-Ser12; also called PEGylated mutein; pegylated mouse IL-11 mutein Δ1.21
fold reduction of binding affinity relative to non-PEGylated 1.21 [3]: ~5 fold
fold reduction of the ability to antagonize IL-11-induced Ba/F3 cell proliferation, relative to non-PEGylated 1.21 [4]: ~10 fold

The remaining lines, values ahead:

IC50 (nM), inhibition of IL-11-induced proliferation of IL-11Rα/gp130 Ba/F3 cells (MTT) [1]: 14 nM
B2: mIL-11-W147A, N-terminal hexahistidine-tagged (ligand, not shown: small tags and cut ends)
chain: B1 chain with F58A, Q60S, I61A, Q62G

IC50 (nM), inhibition of IL-11-induced proliferation of IL-11Rα/gp130 Ba/F3 cells (MTT) [1]: 0.54 nM
fold higher affinity relative to W147A IL-11 [2]: 20 fold
B3: IL-11 mutant 1.21 (murine PAIDY and W147A IL-11 mutein), N-terminal hexahistidine-tagged (ligand)
chain: B1 chain with F58P, M59A, Q60I, I61D, Q62Y
notes: Mutein of mature murine IL-11 with PAIDY at 58-62 and W147A; not shown: N-terminal hexahistidine tag from the modified pET15b vector
